This note sets out measurements from patent publication US20250027068.

First the molecules themselves.
B1: PRT-628 (protein)
chain: MQITSVWTKGVTPLTPEQFRYNNEDVIHAPYLAHQGWYDITKAFDGKDNLLCGAATAGNMLHWWFDQNKEEIEAYLKKHPEKQKIIFNNQELFDLKAAIDTKDSQTNSQLFNYFRDKAFPNLSARQLGVMPDLVLDMFINGYYLNVFKTQSTDVNRPYQDKDKRGGIFDAVFTRGDQTTLLTARHDLKNKGLNDISTIIKQELTEGRALALSHTYANVSISHVINLWGADFNAEGNLEAIYVTDSDANASIGMKKYFVGINAHGHVAISAKKIEGENIGAQVLGLFTLSSGQDIWQQLSLEHHHHHH
B2: PRT-656 (protein)
chain: MQITSVWTKGVTPLTPEQFRYNNEDVIHAPYLAHQGWYDITKAFDGKDNLLCGAATAGNMLHWWFDQNKTEIEAYLSKHPEKQKIIFNNQELFDLKRAINDKDSQQNSELFNYFRDKAFPNLSARQLGVMPDLVLDMFINGYYLNVFKTQSTDVNRPYQDKDKRGGIFDAVFTRGDQTTLLTARHDLKNKGLNDISTIIKQELTEGRALALSHTYANVSISHVINLWGADFNAEGNLEAIYVTDSDANASIGMKKYFVGINAHGHVAISAKKIEGENIGAQVLGLFTLSSGKDIWQKLSLEHHHHHH
B3: PRT-653 (protein)
chain: MQITSVWTKGVTPLTPEQFRYNNEDVIHAPYLAHQGWYDITKAFDGKDNLLCGAATAGNMLHWWFDQNKTEIEAYLSKHPEKQKIIFNNQELFDLKAAIDTKDSQTNSQLFNYFRDKAFPNLSARQLGVMPDLVLDMFINGYYLNVFKTQSTDVNRPYQDKDKRGGIFDAVFTRGDQTTLLTARHDLKNKGLNDISTIIKQELTEGRALALSHTYGNVRSSHVINLWGADFNAEGNLEAIYVTDSDANASIGMKKYFVGINAHGHVAISAKKIEGENVGAQVLGLFTLSSGKDIWQKLSLEHHHHHH
B4: PRT-648 (protein)
chain: MQITSVWTKGVTPLTPEQFRYNNEDVIHAPYLAHQGWYDITKAFDGKDNLLCGAATAGNMLHWWFDQNKTEIEAYLSKHPEKQKIIFNNQYLFDLKAAIDTKDSQTNSQLFNYFRDKAFGNLSARQLGVMPDLVLDMFINGYYLNVNKTQSTDVNRPYQKPDKRGGIFDAVFTRGDQTTLLTARHDLKNKGLNDISTIIKQELTEGRALALSHTYANVSISHVINLWGADFNAEGNLEAIYVTDSDANASIGMKKYFVGINAHGHVAISAKKIEGENIGAQVLGLFTLSSGKDIWQKLSLEHHHHHH
B5: PRT-652 (protein)
chain: MQITSVWTKGVTPLTPEQFRYNNEDVIHAPYLAHQGWYDITKAFDGKDNLLCGAATAGNMLHWWFDQNKTEIEAYLSKHPEKQKIIFNNQELFDLKAAIDTKDSQTNSQLFNYFRDKAFPNLSARQLGVMPDLVLDMFINGYYLNVFKTQSTDVNRPYQDKDKRGGIFDAVFTRGDQTTLLTARHDLKNKGLNDISTIIKQELTEGRALALSHGTANGGYSHVINLWGADFNAEGNLEAIYVTDSDANASIGMKKYFVGINAHGHVAISAKKIEGENKGAQVLGLFTLSSGKDIWQKLSLEHHHHHH
B6: PRT-679 (protein)
chain: MQITSVWTKGVTPLTPEQFRYNNEDVIHAPYLAHQGWYDITKTFDGKDNLLCGAATAGNMLHWWFDQNKTEIEAYLSKHPEKQKIIFNNQELFDLKEAINTKDSQTNSQLFNYFRDKAFPNLSARQLGVMPDLVLDMFINGYYLNVFKTQSTDVNRPYQDKDKRGGIFDAVFTRGDQTTLLTARHDLKNKGLNEISTIIKQELTEGKALALSHTYANVSISHVINLWGADFNAEGNLEAIYVTDSDANASIGMKKYFVGINAHGHVAISAKKIEGENIGAQVLGLFTLSSGKDIWQKLSLEHHHHHH
B7: PRT-669 (protein)
chain: MQITSVWTKGVTPPTPEQFTNNNEDVFHAPYLANQGWYDITKTFNGKDNLLCGAATAGNMLHWWFDQNKEQIEAYLKKHPEKQKIIFNNQEMFDLKKAIDTKDSQTNSALFNYFRDKAFPNLSARQLGVMPDLVLDMFINGYYLNVGKTQSTDVNRPYQTKDKRGGIFDAVFTRGDQTKLLTARHDLKNKGLNEISDLIKQELTEGKALALSHTYANVRINHVINLWGADFNAEGNLIAIYVTDSDSNASIGMKKYFVGVNSAGKVAISAKKIEGDNIGAQVLGLFTLSSGQDIWQKLSLEHHHHHH
B8: PRT-557 (protein)
chain: MANQEIRYSEEDGKTITSVWTKGVTPPTDFQKNEDVYHAPYVANQGWYDITKTFNGKDDLLCGAATAGNMLHWWFDQNKEEIERYLKKHPEKQKINFNGEQMFDVKEAIDTKDSQTDSALFEYFKDKAFPYLSTKHLGVFPDHVIDMFINGYRLSLTNHGPTPVKDGTKDPRGGIFDAVFTRGDQTKLLTERHDFKEKTLNEISDLIKQELQEGKALGLSHTYANVRINHVINLWGADFDSEGNLEAIYVTDSDSNASIGMKKYYVGVNSAGKVAISAKEIEDDNIGAQVLGLFTLSTGKDIWEQTNLEHHHHHH
B9: PRT-664 (protein)
chain: MQITSVWTKGVTPLTPEQFRYNNEDVIHAPYLPHQGWYDITKAFDGKDNLLCGAATAGNMLHWWFDQNKTEIEAYLSKHPEKQKIIFNNQELFDLRAAINTKDSQTNSALFNYFRDKAFPNLSARQLGVMPDLVLDMFINGYYLNVFKTQSTDVNRPYQDKDKRGGIFDAVFTRGDQTTLLTARHDLKNKGLNDISTLIKQELTEGKALALSHTYANVSISHVINLWGADFNAEGNLEAIYVTDSDSDASIGMKKYYVGINASGHVAISAKKIEGENIGAQVLGLFTLSSGKDIWQKLSLEHHHHHH
B10: PRT-676 (protein)
chain: MQITSVWTKGVTPPTMDQFTNYNYDVFHAPYKPGQGWYDITKTFDGKDNLLCGAATAGNMLHWWFDQNKEEIENYLKKHPEKQKIIFNNQKMFDLRKAINTKDSQTNSALFNYFKDKAFPNLSARQKGVMPDLVLDMFINGYYLNLGKTQSTDVNREYQTKDSRGGIFDDVFGRGDQTKLLTARHDLYNGGLNDISQLIKQELSSGKALGLSHTYANVRYSHVINLWGADFDEEGNLEAIYVTDSDDDASIGMKKYYVGKNASGKVAISAKKIEGENIGAQVLGLFTLSSGKEIWQKLSLEHHHHHH
B11: PRT-570 (protein)
chain: MANQEIRYSEATPSHITSVWTKGVTPPEQFIQNEDVLHAPYIANQGWYDITKTFNGKDDLLCGAATAGNMLHWWFDQNKEQIEAYLKKHPEKQKINFNGEQMFDVKEAIDTKDSQTDSALFNYFKDKAFPYLSTKHLGVFPDHVIDMFINGYRLSLTNHGPTPVKEQTKDPRGGIFDAVFTRGDQSKLLTSRHDFKEKTLKEISQLIKQELTEGKALGLSHTYANVRINHVINLWGADFNAEGNLEAIYVTDSDSNASIGMKKYYVGVNSAGKVAISAKEIEGDNIGAQVLGLFTLSTGQDIWQQTNLEHHHHHH
B12: PRT-616 (protein)
chain: MQITTVWTKGVTPLTPEQFRYNNEDVIHAPYLPHQGWYDITKAFDGKDNLLCGAATAGNMLHWWFDQNKTEIEAYLSKYPEKQKIIFNNQELFDLRAAINTKDSQTNSQLFNYFRDKAFPNLSARQLGVMPDLVLDMFINGYYLNVFKTQSTDVNRPYQDRDKRGGIFDAVFNRGDQTTLLTARHDLKNKGLNDISTIIKQELSSGRALALSHTYANVSISHVINLWGADFNAEGNLEAIYVTDSDANASIGMKKYYVGINAHGHVAISAKKIEGENIGAQVLGLFTLSSGKDIWQKLSLEHHHHHH
B13: PRT-674 (protein)
chain: MQITSVWTKGVTPPTMEQFRYNNYDVFHAPYLPGQGWYDITKAFDGGDNLLCGAATAGNMLHWWFDQNKEEIEAYLSKYPEKQKIIFNNQELFDLRKAINSKDSQTNSELFNYFRDKAFGNLSARQKGVMPDLVLDMFINGYYLNLNKTQSTDVNRPYQDPDKRGGIFDDVFKEGDQTKLLTARHDLSNGGLDDISTIIKQELQSGRALALSHTYANVSYSHVINLWGADFDAEGNLEAIYVTDSDDDQSIGMKKYKVGKNASGHVRISAKKIEDENIGAQVLGLFTLSLGKEIWQKLSLEHHHHHH

The data set concerns the target pooled human IgG (human IgG1,2,3 and 4).
As for B1, the Enzyme activity endpoint: Fab′2 came out at 852 ng/µL, the Enzyme activity endpoint: Fc turned out to be 465 ng/µL, the Enzyme activity endpoint: IgG came out at 0 ng/µL and the Enzyme activity endpoint: scIgG was determined as 0 ng/µL.

Consider B2, for which the Enzyme activity endpoint: Fab′2 came to 841 ng/µL, the Enzyme activity endpoint: Fc worked out at 540 ng/µL, the Enzyme activity endpoint: IgG worked out at 0 ng/µL and the Enzyme activity endpoint: scIgG came out at 319 ng/µL.

In turn, B3 returned an Enzyme activity endpoint: Fab′2 of 1350 ng/µL, an Enzyme activity endpoint: Fc of 0 ng/µL, an Enzyme activity endpoint: IgG of 2350 ng/µL and an Enzyme activity endpoint: scIgG of 0 ng/µL.

For the protein B4, the Enzyme activity endpoint: Fab′2 worked out at 182 ng/µL, the Enzyme activity endpoint: Fc came out at 206 ng/µL, the Enzyme activity endpoint: IgG was 417 ng/µL and the Enzyme activity endpoint: scIgG amounted to 619 ng/µL.

With B5, the Enzyme activity endpoint: Fab′2 turned out to be 410 ng/µL, the Enzyme activity endpoint: Fc was determined as 0 ng/µL, the Enzyme activity endpoint: IgG was determined as 789 ng/µL and the Enzyme activity endpoint: scIgG was 12 ng/µL.

In turn, B6 gave an Enzyme activity endpoint: Fab′2 of 693 ng/µL, an Enzyme activity endpoint: Fc of 327 ng/µL, an Enzyme activity endpoint: IgG of 34 ng/µL and an Enzyme activity endpoint: scIgG of 54 ng/µL.

In turn, B7 registered an Enzyme activity endpoint: Fab′2 of 808 ng/µL, an Enzyme activity endpoint: Fc of 457 ng/µL, an Enzyme activity endpoint: IgG of 0 ng/µL and an Enzyme activity endpoint: scIgG of 0 ng/µL.

On to B8, for which the Enzyme activity endpoint: Fab′2 worked out at 512 ng/µL, the Enzyme activity endpoint: Fc amounted to 410 ng/µL, the Enzyme activity endpoint: IgG is 0 ng/µL and the Enzyme activity endpoint: scIgG is 194 ng/µL.

B9 gave an Enzyme activity endpoint: Fab′2 of 703 ng/µL, an Enzyme activity endpoint: Fc of 419 ng/µL, an Enzyme activity endpoint: IgG of 0 ng/µL and an Enzyme activity endpoint: scIgG of 0 ng/µL.

B10 had an Enzyme activity endpoint: Fab′2 of 107 ng/µL, an Enzyme activity endpoint: Fc of 136 ng/µL, an Enzyme activity endpoint: IgG of 0 ng/µL and an Enzyme activity endpoint: scIgG of 118 ng/µL.

The protein B11 came in with an Enzyme activity endpoint: Fab′2 of 551 ng/µL, an Enzyme activity endpoint: Fc of 126 ng/µL, an Enzyme activity endpoint: IgG of 0 ng/µL and an Enzyme activity endpoint: scIgG of 0 ng/µL.

Protein B12 gave an Enzyme activity endpoint: Fab′2 of 943 ng/µL, an Enzyme activity endpoint: Fc of 495 ng/µL, an Enzyme activity endpoint: IgG of 0 ng/µL and an Enzyme activity endpoint: scIgG of 0 ng/µL.

B13: the Enzyme activity endpoint: Fab′2 was 462 ng/µL, the Enzyme activity endpoint: Fc worked out at 0 ng/µL, the Enzyme activity endpoint: IgG turned out to be 891 ng/µL and the Enzyme activity endpoint: scIgG worked out at 12 ng/µL.
